# In patent US20190359687A1 (Bayer, published 2019):
# Changes are numbered by the printed parent chain.
# T1: Rhesus monkey glycophorin A on Rhesus monkey red blood cells (Rhesus monkey, UniProt A0A1D5Q349 20-150)
# T1 construct: whole, on cells; also called Rhesus RBC; monkey GPA
# T1 sequence: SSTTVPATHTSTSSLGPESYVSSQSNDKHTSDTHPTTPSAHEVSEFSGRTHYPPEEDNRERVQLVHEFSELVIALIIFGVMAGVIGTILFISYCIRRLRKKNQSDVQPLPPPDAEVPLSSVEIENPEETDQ
# T2: human glycophorin A in the red blood cell membrane (human, UniProt P02724 20-150)
# T2 construct: whole, on cells; used for intact RBC, isolated RBC membranes and transfected cells; the assay field tells which; also called GPA; hGPA
# T2 sequence (looked up): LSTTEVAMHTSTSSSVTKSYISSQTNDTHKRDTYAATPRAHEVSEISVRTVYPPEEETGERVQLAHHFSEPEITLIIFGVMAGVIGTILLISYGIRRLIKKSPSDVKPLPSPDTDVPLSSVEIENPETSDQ
# T3: purified human glycophorin A protein (Sigma, cat # G5017) (human, UniProt P02724 20-150)
# T3 construct: mature; also called Sigma hGPA; Sigma GPA
# T3 sequence (looked up): T2 sequence (looked up)
# T4: glycophorin A peptide GP5 (human, biotin at the N-terminus)
# T4 construct: Residues 42 to 61 of the human glycophorin A extracellular domain
# T4 peptide: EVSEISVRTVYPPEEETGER
# B1: Hu6C12-12 (antibody, V domains shown)
# VH: EVQLVQSGAEVKKPGASVKVSCKASGYTFTTYTIHWVRQAPGQGLEWMGYINPSSDYTRYNPKFKDRVTMTTDTSTSTAYMELRSLRSDDTAVYYCQTGTRDYWGQGTTVTVSS
# VL: DIQLTQSPSFLSASVGDRVTITCSAASSVSYIYWYQQKPGKAPKLLIYSTSTLPSGVPSRFSGSGSGTEYTLTISSLQPEDFATYYCHQRNSFPFTFGQGTKLEIK
# notes: IgG format; VH.1c + Vk.1a
# B2: Hu6C12-15 (antibody, V domains shown)
# VH: B1 VH with M70L
# VL: B1 VL
# notes: IgG format; VH.1f + Vk.1a
# B3: Hu6C12-2 (antibody, V domains shown)
# VH: B1 VH with Q97A
# VL: B1 VL with Y70F
# notes: IgG format; VH.1b + Vk.1
# B4: Hu6C12-3 (antibody, V domains shown)
# VH: B1 VH
# VL: B1 VL with Y70F
# notes: IgG format; VH.1c + Vk.1
# B5: Hu6C12-5 (antibody, V domains shown)
# VH: B1 VH with M70L, Q97A
# VL: B1 VL with Y70F
# notes: IgG format; VH.1e + Vk.1
# B6: Hu6C12-6 (antibody, V domains shown)
# VH: B1 VH with M70L
# VL: B1 VL with Y70F
# notes: IgG format; VH.1f + Vk.1
# B7: Hu6C12-7 (antibody, V domains shown)
# VH: B1 VH with M48I, M70L, T74K
# VL: B1 VL with Y70F
# notes: IgG format; VH.1g + Vk.1
# B8: Hu6C12-11 (antibody, V domains shown)
# VH: B1 VH with Q97A
# VL: B1 VL
# notes: IgG format; VH.1b + Vk.1a
# B9: Hu6C12-14 (antibody, V domains shown)
# VH: B1 VH with M70L, Q97A
# VL: B1 VL
# notes: IgG format; VH.1e + Vk.1a
# B10: Hu6C12-16 (antibody, V domains shown)
# VH: B1 VH with M48I, M70L, T74K
# VL: B1 VL
# notes: IgG format; VH.1g + Vk.1a
# B11: Hu6C12-19 (antibody, V domains shown)
# VH: B1 VH with Q97A
# VL: B1 VL with Y35F
# notes: IgG format; VH.1b + Vk.1b
# B12: Hu6C12-21 (antibody, V domains shown)
# VH: B1 VH with M70L, T98R
# VL: B1 VL with Y35F
# notes: IgG format; VH.1d + Vk.1b
# B13: TPP-8744 FVIII-scFv fusion protein (other)
# chain: ATRRYYLGAVELSWDYMQSDLGELPVDARFPPRVPKSFPFNTSVVYKKTLFVEFTDHLFNIAKPRPPWMGLLGPTIQAEVYDTVVITLKNMASHPVSLHAVGVSYWKASEGAEYDDQTSQREKEDDKVFPGGSHTYVWQVLKENGPMASDPLCLTYSYLSHVDLVKDLNSGLIGALLVCREGSLAKEKTQTLHKFILLFAVFDEGKSWHSETKNSLMQDRDAASARAWPKMHTVNGYVNRSLPGLIGCHRKSVYWHVIGMGTTPEVHSIFLEGHTFLVRNHRQASLEISPITFLTAQTLLMDLGQFLLFCHISSHQHDGMEAYVKVDSCPEEPQLRMKNNEEAEDYDDDLTDSEMDVVRFDDDNSPSFIQIRSVAKKHPKTWVHYIAAEEEDWDYAPLVLAPDDRSYKSQYLNNGPQRIGRKYKKVRFMAYTDETFKTREAIQHESGILGPLLYGEVGDTLLIIFKNQASRPYNIYPHGITDVRPLYSRRLPKGVKHLKDFPILPGEIFKYKWTVTVEDGPTKSDPRCLTRYYSSFVNMERDLASGLIGPLLICYKESVDQRGNQIMSDKRNVILFSVFDENRSWYLTENIQRFLPNPAGVQLEDPEFQASNIMHSINGYVFDSLQLSVCLHEVAYWYILSIGAQTDFLSVFFSGYTFKHKMVYEDTLTLFPFSGETVFMSMENPGLWILGCHNSDFRNRGMTALLKVSSCDKNTGDYYEDSYEDISAYLLSKNNAIEPRSFSQNGGGGSTGGTGGSSGGGTGSGGGGTGGSGGTDIQLTQSPSFLSASVGDRVTITCRASSSVSYIYWFQQKPGKAPKLLIYATSTLQSGVPSRFSGSGSGTEYTLTISSLQPEDFATYYCHQRNSFPYTFGQGTKLEIKGGGGSGGGGSGGGGSGGGGSEVQLVQSGAEVKKPGASVKVSCKASGYTFTRYTIHWVRQAPGQGLEWMGYINPSSGYTRYNPKFKGRVTMTRDKSTSTAYMELRSLRSDDTAVYYCWTGTRDYWGQGTTVTVSSGGGGSQNPPVLKRHQREITDENQSPRSFQKKTRHYFIAAVERLWDYGMSSSPHVLRNRAQSGSVPQFKKVVFQEFTDGSFTQPLYRGELNEHLGLLGPYIRAEVEDNIMVTFRNQASRPYSFYSSLISYEEDQRQGAEPRKNFVKPNETKTYFWKVQHHMAPTKDEFDCKAWAYFSDVDLEKDVHSGLIGPLLVCHTNTLNPAHGRQVTVQEFALFFTIFDETKSWYFTENMERNCRAPCNIQMEDPTFKENYRFHAINGYIMDTLPGLVMAQDQRIRWYLLSMGSNENIHSIHFSGHVFTVRKKEEYKMALYNLYPGVFETVEMLPSKAGIWRVECLIGEHLHAGMSTLFLVYSNKCQTPLGMASGHIRDFQITASGQYGQWAPKLARLHYSGSINAWSTKEPFSWIKVDLLAPMIIHGIKTQGARQKFSSLYISQFIIMYSLDGKKWQTYRGNSTGTLMVFFGNVDSSGIKHNIFNPPIIARYIRLHPTHYSIRSTLRMELMGCDLNSCSMPLGMESKAISDAQITASSYFTNMFATWSPSKARLHLQGRSNAWRPQVNNPKEWLQVDFQKTMKVTGVTTQGVKSLLTSMYVKEFLISSSQDGHQWTLFFQNGKVKVFQGNQDSFTPVVNSLDPPLLTRYLRIHPQSWVHQIALRMEVLGCEAQDLY
# notes: The entry is the mature protein; mostly a 2 chain molecule
# Target: T5, Cynomolgus monkey glycophorin A on Cynomolgus monkey red blood cells (Cynomolgus monkey)
# T5 construct: whole, on cells; also called Cyno RBC; Cyno GPA
# Test: FACS, RBC Cy02
# Protocol: (§1) The binding of the humanized variants to intact red blood cells (RBC) from humans (Hu01 to 03; 3 individuals), Rhesus monkey (Rh01 to 03; 3 individuals) and Cynomolgus monkey (Cy01 to 02; 2 individuals) was measured by fluorescence activated cell sorting (FACS).
row,Binder,fluorescence intensity
1,B1,1030
2,B2,1070
3,B3,1030
4,B4,1200
5,B5,1140
6,B6,1100
7,B7,1430
8,B8,1020
9,B9,1080
10,B10,1360
11,B11,1240
12,B12,1120

# Target: T1, Rhesus monkey glycophorin A on Rhesus …
# Test: FACS, RBC Rh01
# Protocol: as §1
row,Binder,fluorescence intensity
1,B1,1480
2,B2,1520
3,B3,1530
4,B4,1730
5,B5,1660
6,B6,1640
7,B7,2060
8,B8,1530
9,B9,1480
10,B10,2000
11,B11,1620
12,B12,1470

# Target: T2, human glycophorin A in the red blood …
# Test: FACS, RBC Hu03
# Protocol: as §1
row,Binder,fluorescence intensity
1,B1,484
2,B2,482
3,B3,716
4,B4,862
5,B5,758
6,B6,786
7,B7,1100
8,B8,387
9,B9,384
10,B10,786
11,B11,1440

# Target: T1, Rhesus monkey glycophorin A on Rhesus …
# Test: FACS, RBC Rh02
row,Binder,fluorescence intensity
1,B1,1400
2,B2,1480
3,B3,1400
4,B4,1600
5,B5,1550
6,B6,1520
7,B7,1940
8,B8,1440
9,B9,1480
10,B10,1860
11,B11,1510
12,B12,1330

# Target: T2, human glycophorin A in the red blood …
# Test: FACS, RBC Hu01
# Protocol: as §1
row,Binder,fluorescence intensity
1,B1,646
2,B2,590
3,B3,897
4,B4,1070
5,B5,921
6,B6,909
7,B7,1230
8,B8,548
9,B9,514
10,B10,895
11,B11,1630

# Target: T2, human glycophorin A in the red blood …
# Test: FACS, RBC Hu02
# Protocol: as §1
row,Binder,fluorescence intensity
1,B1,393
2,B2,375
3,B3,603
4,B4,739
5,B5,625
6,B6,634
7,B7,945
8,B8,315
9,B9,298
10,B10,637
11,B11,1270

# Target: T1, Rhesus monkey glycophorin A on Rhesus …
# Test: FACS, RBC Rh03
# Protocol: as §1
row,Binder,fluorescence intensity
1,B1,1410
2,B2,1490
3,B3,1380
4,B4,1600
5,B5,1560
6,B6,1540
7,B7,1920
8,B8,1420
9,B9,1480
10,B10,1870
11,B11,1520
12,B12,1340

# Target: T3, purified human glycophorin A protein …
# Test: ELISA, IgG
row,Binder,EC50 [nM]
1,B1,10.4
2,B2,9.69
3,B3,8.65
4,B4,2.17
5,B5,8.45
6,B6,3.46
7,B7,1.78
8,B10,4.8
9,B11,0.876

# Target: T5, Cynomolgus monkey glycophorin A on …
# Test: FACS, RBC Cy01
# Protocol: as §1
row,Binder,fluorescence intensity
1,B1,959
2,B2,1010
3,B3,962
4,B4,1120
5,B5,1070
6,B6,1060
7,B7,1360
8,B8,960
9,B9,978
10,B10,1270
11,B11,1040
12,B12,908

# Target: T4, glycophorin A peptide GP5
# Test: Octet, GP5 peptide on the probe, fusion protein in solution, 1:1 fit
Binder,Kd [nM],koff [s⁻¹],kon [M⁻¹ s⁻¹]
B13,7.35,0.0048,652000
